In patent US20170362301A1 (Janssen / Centocor, published 2017):
Changes are numbered by the printed parent chain. Names may count otherwise.

B1: P54AR4-83v2 K40C, NEM conjugate (designed binder)
chain: LPAPKNLVVSEVTEDSARLSWDDPWAFYESFLIQYQESECVGEAIVLTVPGSERSYDLTGLKPGTEYTVSIYGVHNVYKDTNMRGLPLSAIFTT
modifications: NEM on Cys 40
notes: His-tagged
B2: P54AR4-83v2 P50C, NEM conjugate (designed binder)
chain: B1 chain with C40K, P50C
modifications: NEM on Cys 50
notes: His-tagged
B3: P54AR4-83v2 K79C, NEM conjugate (designed binder)
chain: B1 chain with C40K, K79C
modifications: NEM on Cys 79
notes: His-tagged
B4: P54AR4-83v2 S10C, NEM conjugate (designed binder)
chain: B1 chain with S10C, C40K
modifications: NEM on Cys 10
notes: His-tagged
B5: P54AR4-83v2 R18C, NEM conjugate (designed binder)
chain: B1 chain with R18C, C40K
modifications: NEM on Cys 18
notes: His-tagged
B6: P54AR4-83v2 P87C, NEM conjugate (designed binder)
chain: B1 chain with C40K, P87C
modifications: NEM on Cys 87
notes: His-tagged
B7: P54AR4-83v2 L32C, NEM conjugate (designed binder)
chain: B1 chain with L32C, C40K
modifications: NEM on Cys 32
notes: His-tagged
B8: P54AR4-83v2 L7C, NEM conjugate (designed binder)
chain: B1 chain with L7C, C40K
modifications: NEM on Cys 7
notes: His-tagged
B9: P54AR4-83v2 S16C, NEM conjugate (designed binder)
chain: B1 chain with S16C, C40K
modifications: NEM on Cys 16
notes: His-tagged
B10: P54AR4-83v2 P24C, NEM conjugate (designed binder)
chain: B1 chain with P24C, C40K
modifications: NEM on Cys 24
notes: His-tagged
B11: P54AR4-83v2 S20C, NEM conjugate (designed binder)
chain: B1 chain with S20C, C40K
modifications: NEM on Cys 20
notes: His-tagged
B12: P54AR4-83v2 L88C, NEM conjugate (designed binder)
chain: B1 chain with C40K, L88C
modifications: NEM on Cys 88
notes: His-tagged
B13: P54AR4-83v2 N82C, NEM conjugate (designed binder)
chain: B1 chain with C40K, N82C
modifications: NEM on Cys 82
notes: His-tagged
B14: P54AR4-83v2 N6C, NEM conjugate (designed binder)
chain: B1 chain with N6C, C40K
modifications: NEM on Cys 6
notes: His-tagged
B15: P54AR4-83v2 L86C, NEM conjugate (designed binder)
chain: B1 chain with C40K, L86C
modifications: NEM on Cys 86
notes: His-tagged
B16: P54AR4-83v2 M83C, NEM conjugate (designed binder)
chain: B1 chain with C40K, M83C
modifications: NEM on Cys 83
notes: His-tagged
B17: P54AR4-83v2 N76C, NEM conjugate (designed binder)
chain: B1 chain with C40K, N76C
modifications: NEM on Cys 76
notes: His-tagged
B18: P54AR4-83v2 P2C, NEM conjugate (designed binder)
chain: B1 chain with P2C, C40K
modifications: NEM on Cys 2
notes: His-tagged
B19: P54AR4-83v2 Q34C, NEM conjugate (designed binder)
chain: B1 chain with Q34C, C40K
modifications: NEM on Cys 34
notes: His-tagged
B20: P54AR4-83v2 P4C, NEM conjugate (designed binder)
chain: B1 chain with P4C, C40K
modifications: NEM on Cys 4
notes: His-tagged
B21: P54AR4-83v2 K62C, NEM conjugate (designed binder)
chain: B1 chain with C40K, K62C
modifications: NEM on Cys 62
notes: His-tagged
B22: P54AR4-83v2 L47C, NEM conjugate (designed binder)
chain: B1 chain with C40K, L47C
modifications: NEM on Cys 47
notes: His-tagged
B23: P54AR4-83v2 R54C, NEM conjugate (designed binder)
chain: B1 chain with C40K, R54C
modifications: NEM on Cys 54
notes: His-tagged
B24: P54AR4-83v2 R84C, NEM conjugate (designed binder)
chain: B1 chain with C40K, R84C
modifications: NEM on Cys 84
notes: His-tagged
B25: P54AR4-83v2 P63C, NEM conjugate (designed binder)
chain: B1 chain with C40K, P63C
modifications: NEM on Cys 63
notes: His-tagged

These binders were tested against T1, EGFR (form in the assay not stated) (human, UniProt P00533 25-645, limits assumed) (assay: ELISA, NEM conjugate 100 nM).
In the case of B1, the “binding ratio vs parent P54AR4-83v2” value is reported as 0.95 ratio. For B2, the “binding ratio vs parent P54AR4-83v2” value was 1.05 ratio. B3 was tested, and the “binding ratio vs parent P54AR4-83v2” value was 0.99 ratio. In the case of B4, the “binding ratio vs parent P54AR4-83v2” value is reported as 1.07 ratio. In the case of B5, the “binding ratio vs parent P54AR4-83v2” value is reported as 1.05 ratio. In the case of B6, the “binding ratio vs parent P54AR4-83v2” value is reported as 0.93 ratio. In the case of B7, the “binding ratio vs parent P54AR4-83v2” value is reported as 1.01 ratio. B8 was tested, and the “binding ratio vs parent P54AR4-83v2” value was 1 ratio. With B9 the “binding ratio vs parent P54AR4-83v2” value was 1.05 ratio. With B10 the “binding ratio vs parent P54AR4-83v2” value was 0.85 ratio. In the case of B11, the “binding ratio vs parent P54AR4-83v2” value is reported as 1.05 ratio. In the case of B12, the “binding ratio vs parent P54AR4-83v2” value is reported as 1.03 ratio. For B13, the “binding ratio vs parent P54AR4-83v2” value was 0.97 ratio. B14 was tested, and the “binding ratio vs parent P54AR4-83v2” value was 1.01 ratio. B15 was tested, and the “binding ratio vs parent P54AR4-83v2” value was 0.96 ratio. With B16 the “binding ratio vs parent P54AR4-83v2” value was 0.04 ratio. With B17 the “binding ratio vs parent P54AR4-83v2” value was 0.97 ratio. B18 was tested, and the “binding ratio vs parent P54AR4-83v2” value was 0 ratio. With B19 the “binding ratio vs parent P54AR4-83v2” value was 1.03 ratio. B20 was tested, and the “binding ratio vs parent P54AR4-83v2” value was 0.02 ratio. With B21 the “binding ratio vs parent P54AR4-83v2” value was 0.73 ratio. In the case of B22, the “binding ratio vs parent P54AR4-83v2” value is reported as 1.02 ratio. In the case of B23, the “binding ratio vs parent P54AR4-83v2” value is reported as 1.01 ratio. For B24, the “binding ratio vs parent P54AR4-83v2” value was 1.04 ratio. With B25 the “binding ratio vs parent P54AR4-83v2” value was 1.02 ratio.

What follows are binders tested against T1, EGFR (form in the assay not stated) (assay: ELISA, NEM conjugate 10 nM).
B1 was tested, and the “binding ratio vs parent P54AR4-83v2” value was 0.88 ratio. In the case of B2, the “binding ratio vs parent P54AR4-83v2” value is reported as 0.91 ratio. For B3, the “binding ratio vs parent P54AR4-83v2” value was 0.9 ratio. B4 was tested, and the “binding ratio vs parent P54AR4-83v2” value was 0.83 ratio. With B5 the “binding ratio vs parent P54AR4-83v2” value was 0.86 ratio. With B6 the “binding ratio vs parent P54AR4-83v2” value was 0.73 ratio. With B7 the “binding ratio vs parent P54AR4-83v2” value was 0.87 ratio. In the case of B8, the “binding ratio vs parent P54AR4-83v2” value is reported as 0.35 ratio. In the case of B9, the “binding ratio vs parent P54AR4-83v2” value is reported as 0.88 ratio. In the case of B10, the “binding ratio vs parent P54AR4-83v2” value is reported as 0.45 ratio. For B11, the “binding ratio vs parent P54AR4-83v2” value was 0.81 ratio. For B12, the “binding ratio vs parent P54AR4-83v2” value was 0.95 ratio. With B13 the “binding ratio vs parent P54AR4-83v2” value was 0.56 ratio. B14 was tested, and the “binding ratio vs parent P54AR4-83v2” value was 0.76 ratio. With B15 the “binding ratio vs parent P54AR4-83v2” value was 0.77 ratio. With B16 the “binding ratio vs parent P54AR4-83v2” value was 0.07 ratio. For B17, the “binding ratio vs parent P54AR4-83v2” value was 0.75 ratio. In the case of B18, the “binding ratio vs parent P54AR4-83v2” value is reported as 0 ratio. For B19, the “binding ratio vs parent P54AR4-83v2” value was 0.89 ratio. In the case of B20, the “binding ratio vs parent P54AR4-83v2” value is reported as 0.02 ratio. In the case of B21, the “binding ratio vs parent P54AR4-83v2” value is reported as 0.64 ratio. With B22 the “binding ratio vs parent P54AR4-83v2” value was 0.92 ratio. With B23 the “binding ratio vs parent P54AR4-83v2” value was 0.89 ratio. In the case of B24, the “binding ratio vs parent P54AR4-83v2” value is reported as 0.91 ratio. In the case of B25, the “binding ratio vs parent P54AR4-83v2” value is reported as 0.95 ratio.

These binders were tested against T1, EGFR (form in the assay not stated) (assay: ELISA, NEM conjugate 500 nM).
With B1 the “binding ratio vs parent P54AR4-83v2” value was 0.86 ratio. In the case of B2, the “binding ratio vs parent P54AR4-83v2” value is reported as 0.97 ratio. In the case of B3, the “binding ratio vs parent P54AR4-83v2” value is reported as 0.93 ratio. In the case of B4, the “binding ratio vs parent P54AR4-83v2” value is reported as 0.96 ratio. B5 was tested, and the “binding ratio vs parent P54AR4-83v2” value was 0.94 ratio. For B6, the “binding ratio vs parent P54AR4-83v2” value was 0.91 ratio. With B7 the “binding ratio vs parent P54AR4-83v2” value was 0.91 ratio. With B8 the “binding ratio vs parent P54AR4-83v2” value was 0.9 ratio. With B9 the “binding ratio vs parent P54AR4-83v2” value was 0.63 ratio. B10 was tested, and the “binding ratio vs parent P54AR4-83v2” value was 0.83 ratio. B11 was tested, and the “binding ratio vs parent P54AR4-83v2” value was 0.91 ratio. For B12, the “binding ratio vs parent P54AR4-83v2” value was 0.97 ratio. B13 was tested, and the “binding ratio vs parent P54AR4-83v2” value was 0.96 ratio. B14 was tested, and the “binding ratio vs parent P54AR4-83v2” value was 0.89 ratio. B15 was tested, and the “binding ratio vs parent P54AR4-83v2” value was 0.92 ratio. With B16 the “binding ratio vs parent P54AR4-83v2” value was 0.24 ratio. B17 was tested, and the “binding ratio vs parent P54AR4-83v2” value was 0.91 ratio. For B18, the “binding ratio vs parent P54AR4-83v2” value was 0.01 ratio. With B19 the “binding ratio vs parent P54AR4-83v2” value was 0.94 ratio. With B20 the “binding ratio vs parent P54AR4-83v2” value was 0.12 ratio. With B21 the “binding ratio vs parent P54AR4-83v2” value was 0.61 ratio. With B22 the “binding ratio vs parent P54AR4-83v2” value was 0.91 ratio. B23 was tested, and the “binding ratio vs parent P54AR4-83v2” value was 0.93 ratio. For B24, the “binding ratio vs parent P54AR4-83v2” value was 0.98 ratio. B25 was tested, and the “binding ratio vs parent P54AR4-83v2” value was 0.92 ratio.
